The values below come from patent US20240025971A1 (ATRECA, published 2024).

B1: AB-009095 (antibody, V domains shown)
VH: EVQLVQSGAEVKKPGESLIISCTGSGYTFATFWITWVRQMPGKGLEWLGRIDPSDSYTNYNPSFQGHVTVSVDRSINTAYLELTSLKASDTAIYYCARQMYNTGWPIPNYSDYWGQGTLVTVSS
VL: QSALTQPPSASGSPGQSVTISCAGASTDVGVYNFVSWYQQHPGKAPKLIIFDVNKRPSGVPDRFSGSKSGNTASLTVSGLQAEDEADYYCSSYEVGNNFVFGTGTKVTVL
notes: human IgG1
B2: AB-009078 (antibody, V domains shown)
VH: QITLKESGPTLVKPTQTLTLTCTFSGFSLSTSGVGVGWIRQPPGKALEWLALIYWDDDKRYSPSLKSRLTITKDTSKNQVVLTMTNMDPVDTATYYCAHRPGDFWSGYYRYWGQGTLVTVSS
VL: not shown
notes: human IgG1
B3: AB-009119 (antibody, V domains shown)
VH: EVQLVESGGGLVQPGGSLKLSCAASGFTFSGSAMHWVRQASGKGLEWVGRIRSKANSYATAYAASVKGRFTISRDDSKNTAYLQMNSLKTEDTAVYYCTRHGTTVNWGQGTLVTVSS
VL: not shown
notes: human IgG1
B4: AB-009665 (antibody, V domains shown)
VH: QVQLVQSGAEVKKPGASVKVSCKVSGYTLIELSMHWVRQAPGKGLEWMGGFDPEDGETIYAQKFQGRVTMTEDTSTDTAYMELSSLRSEDTAVYYCAAARVFGVATWFDPWGQGTLVTVSS
VL: QSVLTQPPSVSAAPGQKVTISCSGSSSNIGNNYVSWYQQLPGTAPKLLIYDNNKRPSGIPDRFSGSKSGTSATLGITGLQTGDEADYYCGTWDSSLSAGVFGGGTKLTVL
notes: human IgG1
B5: AB-009174 (antibody, V domains shown)
VH: QVQLQQWGAGLLKPSETLSLTCAVYGESFSGYYWNWIRQPPGKGLEWIGEIDQSGSTNYNPSLKSRVTISVDTSKNQFSLKLTSVTAADTAVYYCARVSGRMQLWLRAGYMDVWDKGTTVTVSS
VL: QSALTQPASVSGSPGQSITISCTGTSSDVGRYNYVSWYQQHPGKAPKLMIYEVSNRPSGVSNRFSGSKSGNTASLTISGLQAEDEADYYCSSYTTSSTRVFGGGTKLTVL
notes: human IgG1
B6: AB-009244 (antibody, V domains shown)
VH: EVQLVESGGGLVQPGGSLRLSCAASGFAFNTYGINWVRQAPGKGLEWVSFISSRSTTIHYADSVRGRFTISRDNAKNSLYLQMNNLRDEDTAVYYCARDLLIWFGETGAFDIWGQGTMVTVSS
VL: EVVMTQSPATLSVSSGERVTLSCRASQSVSNNLAWYQQKPGQAPRLLIYGASTRATGFPARFSGSGSGTEFTLTISSLQSEDFAVYYCQQYNIWPPGTFGQGTKLEIK
notes: human IgG1
B7: AB-009231 (antibody, V domains shown)
VH: EVQLVESGGGLVQPGGSLRLSCAASGFTFSSYWMSWVRQAPGKGLEWVANIKQDGSEKYYVDSVKGRFTISRDNAKNSLYLQMNSLRAEDTAVYYCARVSMRFLEWSFYYYYYMDVWGKGTTVTVSS
VL: SSELTQDPAVSVALGQTVRITCQGDSLRSYYASWYQQKPGQAPVLVIYGKNNRPSGIPDRFSGSSSGNTASLTITGAQAEDEADYYCNSRDSSGNHLGVVFGGGTKLTVL
notes: human IgG1
B8: AB-009239 (antibody, V domains shown)
VH: QVHLEESGGGVVQPGRSLRLSCAASGFTFSGYAMHWVRQAPGKGLAWVAVISYDGTNKYYTDSVKGRFSISRDNSNNTLYLQMNSLRTEDTALYYCARALTGYYGQFDFDSWGQGTLVTVSS
VL: DVVMTQSPLSLPVTLGQPASISCRSSQSLVHSDGHTYLNWIQQRPGQSPRRLIYKVSNRDSGVPDRFSGSGSGTDFTLKISRVEADDVGIYYCVQGTHWPPWTFGQGTKVEIK
notes: human IgG1
B9: AB-009202 (antibody, V domains shown)
VH: QVQLVESGGGVVQPGRSLRLSCAASGFTFSSYGMHWVRQAPGKGLEWVAVIWYDGSNKYYADSVKGRFTISRDNSKNTLYLQMNSLRAEDTAVYYCARDGGPEYYFDYWGQGTLVTVSS
VL: SYELTQPPSVSVSPGQTARITCSGDALPKQYAYWYQQKPGQAPVLVIYKDSERPSGIPERFSGSSSGTTVTLTISGVQAEDEADYYCQSADSSGTYNVVFGGGTKLTVL
notes: human IgG1
B10: AB-009237 (antibody, V domains shown)
VH: QVQLLQSGAEVKKPGASVSVSCKASGFTFTSYYFHWVRQAPGQGLEWMGIVSPAGGSTNYAQKFQGRVTMTRDTSTSTVHMELRNVRYDDTAVFYCARSVYCSSPSCPHGMDVWGPGTMVTVSS
VL: DIQVTQSPSTLSASVGDRVTITCRASQSILTYLAWYQQKPGKAPNLLIYKASNLQSGVPSRFSGSGSGTEFTLTISSLQPDDFATYHCQQYKSYPFSFGQGTKLAIK
notes: human IgG1
B11: AB-009221 (antibody, V domains shown)
VH: EVQLVESGGGLVQPGGSLRLSCAASGFTVSSNYMSWVRQAPGKGLEWVSVIYSGGSTYYADSVKGRFTISRHNSKNTLYLQMNSLRAEDTAVYYCARDRNAFDIWGQGTMVIVSS
VL: DIQMTQSPSSLSASVGDRVSITCQASQDISNDLNWYQQKPGKAPKLLVYDASKLETGVPPRFSGSGSGTDFTFTISSLQPEDIATYYCQQYDNLPLYSFGQGTKLEIK
notes: human IgG1
B12: AB-009251 (antibody, V domains shown)
V domain 1: QVQLVQSGAEVKKPGASVKVSCKTSGYTFTTFYIHWVRQVPGQGLEWMGIINPDGGSTNYAQEFQARVTMTTDTSTSTAYMELSSLRFEDTAVFYCATSLGAPPGLSPRTGPQRRGPPGFDFWGQGTLITVSA
V domain 2: QSVLTQPPSVSGAPGQRVTISCTGSSSNIGAGYDVHWYQQLPGTAPKLLIFDNNNRPSGVPYRFSGSRSGTSASLAITGLQPEDEADYYCQSYDSSLSGRVFGGGTRVTVL
notes: human IgG1
B13: AB-009083 (antibody, V domains shown)
VH: EVHLLESGGGLVQPGGSLTLTCAASGFSFGNYVMGWVRQAPGKGLEWVSSIFGSGANPHYGGSVKGRFTISRDNSQNTLFLQMDSLTAEDTAVYYCARDGGTMVGGIITGGFNYFDSWGQGTLVTVSS
VL: EIVLTQSPASLSLSPGGWATLSCRASRSIGNSLAWYQQRPGQAPRLLIYDASNRATGIPARFSGSGSGTDFTLTISSLEPEDFAIYYCQQRNSWPPLYTFGQGTKLEIK
notes: human IgG1
B14: AB-009106 (antibody, V domains shown)
VH: QVQLAQSGAEVKRPGASVKVSCKASGFDLTTYGVGWVRQAPGQGLEWMGWISGSSGDTHYAQQFQDRVTMTTDTPTSTAYMELRSLRSDDTAVYYCVRENIAHYGSRTFLVRYYRGMDVWGQGTTVTVAS
VL: QSALTQPASVSGSPGQSITITCTGSSSDIGGFDFVSWYQQYPGKAPKLVISEVTNRPSGVSIRFSGSKSGNTASLTISGLQAEDEADYYCSSYASSYPTTNTRVFGTGTKVTVL
notes: human IgG1
B15: AB-009110 (antibody, V domains shown)
VH: QVQLVQSGAEVKEPGASVKVSCNASGYIFTSYGISWVRQAPGQGLEWVGWISGNNGNTNYAQKFQGRVTLTTDTSTSTAYLELRSLTSADTGVYFCARARLPSAYWGPGTLLTVSS
VL: EILLTQSPATLSVSPGERGSLSCRASQSVGTNLAWYQQKPGQAPRLLIYGASARATGIPARFSGSGSGTEFTLTISSLQSEDFGVYYCQQYNDWPPWTFGQGTKVEIK
notes: human IgG1
B16: AB-009080 (antibody, V domains shown)
VH: QVQLQQWGAGLLKPSETLSLTCAVYGGSFSGYYWSWIRQPPGKGLEWIGEINHSGSTNYNPSLKSRVTISVDTSKNQFSLKLSSVTAADTAVYYCARGLPVTTFYYYYYGMDVWGQGTTVTVSS
VL: not shown
notes: human IgG1
B17: AB-009226 (antibody, V domains shown)
VH: not shown
VL: QSALTQPASVSGSPGQSITISCTGTSSDVGGYNYVSWYQQHPGKAPKLMIYEVSNRPSGVSNRFSGSKSGNTASLTISGLQAEDEADYYCSSYTSSSTLYVFGTGTKVTVL
notes: human IgG1

One experiment has as its target T1, SARS-CoV-2 Receptor Binding Domain (RBD) (SARS-CoV-2, UniProt P0DTC2 319-541).
T1 construct: also called RBD protein
The experiment is described as follows: BLI.
On to B1, for which the binding result was “no binding (tested: 300 nM)”.

For B2, the binding result is “no binding (tested: 300 nM)”.

Regarding B3, the binding result is recorded as “no binding (tested: 300 nM)”.

Consider B4, for which the binding result is reported as “no binding (tested: 300 nM)”.

Another experiment has as its target T2, SARS-CoV-2 S1 protein (SARS-CoV-2, UniProt P0DTC2 16-685).
T2 construct: domain: S1 protein; also called S1 monomer
The experiment is described as follows: BLI.
For B5, the binding result was “no binding (tested: 300 nM)”.

Regarding B1, the binding result is recorded as “no binding (tested: 300 nM)”.

B6: the binding result is recorded as “no binding (tested: 300 nM)”.

Regarding B7, the binding result is on record as “no binding (tested: 300 nM)”.

For B8, the binding result is recorded as “no binding (tested: 300 nM)”.

Take B2: the binding result is “no binding (tested: 300 nM)”.

Turning to B3, the binding result was “no binding (tested: 300 nM)”.

With B9, the binding result was “no binding (tested: 300 nM)”.

Consider B4, for which the binding result is on record as “no binding (tested: 300 nM)”.

For B10, the binding result was “no binding (tested: 300 nM)”.

The target of the next experiment is T3, SARS-CoV-2 S2 protein (SARS-CoV-2, UniProt P0DTC2 686-1213).
T3 construct: domain: S2 protein; also called S2 monomer
The experiment is described as follows: BLI.
As to B5, the binding result is “no binding (tested: 300 nM)”.

B6: the binding result is on record as “no binding (tested: 300 nM)”.

On to B7, for which the binding result is given as “no binding (tested: 300 nM)”.

As to B8, the binding result is “no binding (tested: 300 nM)”.

For B11, the binding result is “no binding (tested: 300 nM)”.

On to B12, for which the binding result is recorded as “no binding (tested: 300 nM)”.

On to B9, for which the binding result was “no binding (tested: 300 nM)”.

On to B4, for which the binding result is recorded as “no binding (tested: 300 nM)”.

For the molecule B10, the binding result is “no binding (tested: 300 nM)”.

A further experiment addresses SARS-CoV-2 Nucleocapsid (N) protein (SARS-CoV-2, UniProt P0DTC9 1-419). The experiment is described as follows: BLI.
For the molecule B5, the binding result was “no binding (tested: 300 nM)”.

For B6, the binding result is on record as “no binding (tested: 300 nM)”.

As for B7, the binding result is on record as “no binding (tested: 300 nM)”.

On to B8, for which the binding result is reported as “no binding (tested: 300 nM)”.

For B11, the binding result is reported as “no binding (tested: 300 nM)”.

For B12, the binding result is reported as “no binding (tested: 300 nM)”.

With B9, the binding result is reported as “no binding (tested: 300 nM)”.

Turning to B10, the binding result was “no binding (tested: 300 nM)”.

The target of another experiment is T4, SARS-CoV-2 Spike (S) trimer (SARS-CoV-2, UniProt P0DTC2 14-1208).
T4 construct: also called Spike trimer
The experiment is described as follows: ELISA, S trimer coated, 1:50 dilution.
Consider B13, for which the “Optical Density (OD; 450 nm)” value was found to be 0.249 OD450.

As to B14, the “Optical Density (OD; 450 nm)” value came to 0.1 OD450.

On to B15, for which the “Optical Density (OD; 450 nm)” value came to 0.081 OD450.

On to B12, for which the “Optical Density (OD; 450 nm)” value is 0.886 OD450.

With B16, the “Optical Density (OD; 450 nm)” value was found to be 0.166 OD450.

B17: the “Optical Density (OD; 450 nm)” value was 2.33 OD450.

On to B4, for which the “Optical Density (OD; 450 nm)” value is 1.38 OD450.
